Experimental data as given in IntAct's records for PubMed 22921914.

B1: Protein SCARECROW (Arabidopsis thaliana (Mouse-ear cress)), Q9M384 (parent)
chain: MAESGDFNGGQPPPHSPLRTTSSGSSSSNNRGPPPPPPPPLVMVRKRLASEMSSNPDYNNSSRPPRRVSHLLDSNYNTVTPQQPPSLTAAATVSSQPNPPLSVCGFSGLPVFPSDRGGRNVMMSVQPMDQDSSSSSASPTVWVDAIIRDLIHSSTSVSIPQLIQNVRDIIFPCNPNLGALLEYRLRSLMLLDPSSSSDPSPQTFEPLYQISNNPSPPQQQQQHQQQQQQHKPPPPPIQQQERENSSTDAPPQPETVTATVPAVQTNTAEALRERKEEIKRQKQDEEGLHLLTLLLQCAEAVSADNLEEANKLLLEISQLSTPYGTSAQRVAAYFSEAMSARLLNSCLGIYAALPSRWMPQTHSLKMVSAFQVFNGISPLVKFSHFTANQAIQEAFEKEDSVHIIDLDIMQGLQWPGLFHILASRPGGPPHVRLTGLGTSMEALQATGKRLSDFADKLGLPFEFCPLAEKVGNLDTERLNVRKREAVAVHWLQHSLYDVTGSDAHTLWLLQRLAPKVVTVVEQDLSHAGSFLGRFVEAIHYYSALFDSLGASYGEESEERHVVEQQLLSKEIRNVLAVGGPSRSGEVKFESWREKMQQCGFKGISLAGNAATQATLLLGMFPSDGYTLVDDNGTLKLGWKDLSLLTASAWTPRS
partner: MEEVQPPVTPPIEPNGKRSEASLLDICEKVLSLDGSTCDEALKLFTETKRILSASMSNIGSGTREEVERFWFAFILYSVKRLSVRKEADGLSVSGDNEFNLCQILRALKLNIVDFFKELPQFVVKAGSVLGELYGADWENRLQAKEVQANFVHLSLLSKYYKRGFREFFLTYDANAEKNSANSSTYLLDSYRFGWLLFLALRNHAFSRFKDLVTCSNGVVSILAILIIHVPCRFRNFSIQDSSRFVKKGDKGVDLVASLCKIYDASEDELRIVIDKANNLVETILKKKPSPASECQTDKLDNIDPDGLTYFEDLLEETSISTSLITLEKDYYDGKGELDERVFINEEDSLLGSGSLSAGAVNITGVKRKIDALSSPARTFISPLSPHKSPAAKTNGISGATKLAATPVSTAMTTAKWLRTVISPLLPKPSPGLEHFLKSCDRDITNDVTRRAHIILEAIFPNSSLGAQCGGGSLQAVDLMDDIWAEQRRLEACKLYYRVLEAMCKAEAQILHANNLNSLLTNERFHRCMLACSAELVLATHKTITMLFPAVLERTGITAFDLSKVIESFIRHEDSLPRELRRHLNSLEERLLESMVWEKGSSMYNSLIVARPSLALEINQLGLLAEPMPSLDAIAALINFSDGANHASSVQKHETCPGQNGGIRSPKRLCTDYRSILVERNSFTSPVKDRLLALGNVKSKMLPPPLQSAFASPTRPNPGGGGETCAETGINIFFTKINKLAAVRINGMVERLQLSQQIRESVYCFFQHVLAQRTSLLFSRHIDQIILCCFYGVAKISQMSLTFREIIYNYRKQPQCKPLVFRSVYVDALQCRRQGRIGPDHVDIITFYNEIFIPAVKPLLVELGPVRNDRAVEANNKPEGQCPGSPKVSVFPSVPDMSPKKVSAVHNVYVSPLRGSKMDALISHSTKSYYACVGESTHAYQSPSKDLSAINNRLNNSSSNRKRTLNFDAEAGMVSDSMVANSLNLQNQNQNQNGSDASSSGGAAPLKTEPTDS

Variants of: B1
Settings: with rbr1_arath RBR1, Q9LKZ3

| Variant | effect of a mutation on the interaction |
| --- | --- |
| L295A;E299A | disrupting interaction strength |
